From US9328334B2, “Luciferase derived from lucidina accensa” (OLYMPUS CORPORATION, priority 2011, dated 2016)
Entries after “also recorded” stand apart in the source; their conditions may differ.

Columns and labels:
[1] = Stability against degradation: SDS-polyacrylamide gel electrophoresis of lysate of E. coli expressing each luciferase (Example 4); conditions: lysate of E. coli BL21 (DE3) CodonPlus expressing the luciferase
Protocol: Stability against degradation was determined for the wild type luciferase derived from L. accensa in comparison with a known luciferase derived from L. biplagiata.
The above three genes were introduced into an expression vector and expressed in E. coli. The expression was carried out in the same manner as the Example 2 except that BL21 (DE3) CodonPlus (manufactured by Stratagene Corporation) was used as E. coli strain and the cells were cultured appropriately.
The lysate was prepared from the E. coli expressing each gene, and then subjected to SDS-polyacrylamide gel electrophoresis. It was confirmed that, as a band with the biggest size, a single band is present near 70 kDa for all three kinds of protein. […] Meanwhile, in the luciferase derived from L. biplagiata (i.e., left and right lanes), several bands with a size smaller than 70 kDa were identified.

[2] = system: HeLa cells; experiment: Luminescence intensity of luciferase expressed in HeLa cells, comparison with L. biplagiata luciferase (Example 5); assay type: cell-based; conditions: 2 mM D-luciferin, 37° C., 90 min
Excerpt: The luminescence intensity from the light emitting reaction using the wild type luciferase derived from L. accensa (SEQ ID NO: 1) was compared to the luminescence intensity from the light emitting reaction using the luciferase derived from L. biplagiata having the literature sequence (SEQ ID NO: 30) or the luciferase derived from L. biplagiata having the cloned sequence (SEQ ID NO: 31). Further, based on the difference between the literature sequence and the cloned sequence, the amino acid residue at position 249 of the amino acid sequence of the wild type luciferase, i.e., methionine, was changed to lysine to prepare the mutant luciferase (M249K), which was then used for the intensity measurement.
With regard to the four types of the luciferase, a nucleic acid containing a gene optimized for mammalian cell expression was given with a Kozak sequence, and then inserted between SgfI and PmeI sites within the multicloning site of pF9A CMV hRLuc neo Flexi vector (manufactured by Promega). Further, since the pF9A vector contains the luciferase gene derived from Renilla reniformis as an internal control in the vector sequence, it is possible to obtain the luminescence intensity from the luminescent gene inserted to the multicloning site as a ratio compared to the luminescence intensity emitted by the Renilla luciferase.
Four types of luciferase plasmids obtained in such a manner described above were each subjected to gene transfection to HeLa cells inoculated in a 48-well plate by a lipofection method, and 24 hours later, the cells were washed with PBS. To each well of a 48-well plate, 500 μL of 2 mM D-luciferin/CO2 Independent Medium (manufactured by Invitrogen) was added and the luminescence intensity was measured for 90 min by using a Luminescensor (manufactured by ATTO Corporation) under the condition including 37° C. and 1 sec per each well. The luminescence intensity which is obtained at the time point of 90 min after starting the measurement was taken as the luminescence intensity of each luciferase. […] Subsequently, 500 μL of 10 μM coelenterazine/CO2 Independent Medium was added to each well and the luminescence intensity was measured for 30 min by using a Luminescensor under the condition including 37° C. and 1 sec per each well. The luminescence intensity obtained at five minutes after the addition of coelenterazine was taken as luminescence intensity of the Renilla luciferase, which is an internal control. Each of the luminescence intensities from the luciferases was divided by the luminescence intensity of the Renilla luciferase, yielding the luminescence intensity of each luciferase. The measurements were carried out multiple times for each luciferase, and the luminescence intensity was obtained as a mean value.

[3] = Measurement of light emission spectra of purified luciferase under various pH environments; assay type: biochemical; conditions: light emission spectra at various pH
Protocol: With use of LumiFlSpectroCapture (manufactured by ATTO Corporation) as an apparatus for measurement, to a solution of 0.1 M citric acid/0.1 M Na2HPO4 buffer (pH 5.5 to 8.0) containing 1 mM of D-luciferin, 2 mM of ATP and 4 mM of MgCl2 the purified enzyme was added at a final concentration of 1 μg/mL, and after 15 seconds of addition of the enzyme luminescence spectra was measured. The measurement results were illustrated in FIG. 1.
After that, each of thus-prepared genes (SEQ ID NOs: 38 and 39) was introduced into pRSET-B vector according to the same method as the Example 2. This vector was transformed to E. coli JM109 (DE3) strain to express the mutant luciferase. Subsequently, the mutant luciferase was purified from E. coli. In addition, under various pH environments, the light emission spectrum was measured according to the same method as the Example 2 from a light emitting reaction catalyzed by the mutant luciferase.

[4] = system: E. coli JM109 (DE3) strain; experiment: Temperature dependency of luminescence intensity: E. coli colonies heat treated at 55° C., CCD image (Example 7); assay type: cell-based, Escherichia coli; conditions: 55° C. for 1 hour, 0.5 mM D-luciferin spray
Protocol: Each of the wild type luciferase gene and two kinds of the mutant gene obtained in the Example 6 was introduced into pRSET-B vector and transformed to E. coli JM109 (DE3) strain to form a colony. Thus-obtained colony was cultured and applied on a LB agar medium to form again the colony for 24 hours. After that, it was subjected to the heat treatment at 55° C. for 1 hour and kept at room temperature for 1 hour. It was then sprayed with a liquid containing 0.5 mM D-luciferin and a photographic image thereof was taken for 1 min by using a CCD camera (trade name: DP70, manufactured by Olympus Corporation).

Molecule | stability against protein degradation (bands on stained SDS-PAGE gel) [1] | luminescence intensity, mean value (divided by Renilla luciferase intensity) [2] | pH environment giving the highest luminescence intensity [3] | light emission compared to the wild type luciferase at 55° C. [4]
L. Biplagiata (literature sequence): luciferase derived from L. biplagiata, sequence disclosed in the literature (Oba et al. 2010), lysine at position 249 (protein, listed as Lucidina biplagiata) MEEDKNILRGPAAFYPLEDGTAGEQLHRAMKRYALIPGTIAFTDAHAGVNITYSEYFEMACRLAESLKRYGLGLQHRIVVCSENSLQFFMPVVGALFIGVGVAPANDIYNERELLNSMTISQPTLVFCSRKGLQKILNVQKKLPVIQKIIILDTKEDYMGFQSMYSFVDSQLPVGFNEYDYVPDSFDRDQATALIMNSSGSTGLPKGVELTHTSVCVRFSHCRDPVFGNQIIPDTAILSVIPFHHGFGKFTTLGYLICGFRVVLMYRFEEELFLRSLQDYKIQSALLVPTLFSFFAKSTLIDKYDLSNLHEIASGGAPLAKEVGEAVAKRFNLRGIRQGYGLTETTSAVIITPEGDDKPGAVGKVVPFFSAKVVDLDTGKTLGVNQRGELCLKGPMIMKGYVNNPEATNALIDKDGWLHSGDISYWDEDGHFFIVDRLKSLIKYKGYQVPPAELESILLQHPFIFDAGVAGIPDDEAGELPAAVVVLEEGKTMTEKEIMDYVAGQVTTAKRLRGGVVFVDEVPKGLTGKLDARKIREILVKAKKTKSKL | stained in a smear shape in the region of 70 kDa or less | 0.12 | – | –
mutant luciferase (F294Y, V323L, and E354V): L. accensa luciferase mutant with F294Y, V323L and E354V, amino acid sequence SEQ ID NO: 34 (protein, listed as Lucidina accensa) MEEDKNILRGPAPFYPLEDGTAGEQLHRAMKRYALIPGTIAFTDAHAGVNITYSEYFEMACRLAESLKRYGLGLQHRIVVCSENSLQFFMPVVGALFIGVGVAPANDIYNERELLNSMTISQPTLVFCSRKGLQKILNVQKKLPVIQKIIILDTKEDYMGFQSMYSFVDSQLPVGFNEYDYVPDSFDRDQATALIMNSSGSTGLPKGVELNHTSVCVRFSHCRDPVYGNQIIPDTAILSVIPFHHGFGMFTTLGYLICGFRVVLMYRFEEELFLRSLQDYKIQSALLVPTLFSYFAKSTLIDKYDLSNLHEIASGGAPLAKELGEAVAKRFNLRGIRQGYGLTETTSAVIITPVGDDKPGAVGKVVPFFSAKVVDLDTGKTLGVNQRGELCLKGPMIMKGYVNNPEATNALIDKDGWLHSGDISYWDEDGHFFIVDRLKSLIKYKGYQVPPAELESILLQHPFIFDAGVAGIPDDEAGELPAAVVVLEEGKTMTEKEIMDYVAGQVTTAKRLRGGVVFVDEVPKGLTGKIDARKIREILVKVKKTKSKL | – | – | 7.4 pH | stronger light emission; also recorded: higher luminescence intensity
mutant luciferase (E322W): L. accensa luciferase mutant with E322W, amino acid sequence SEQ ID NO: 36 (protein, listed as Lucidina accensa) MEEDKNILRGPAPFYPLEDGTAGEQLHRAMKRYALIPGTIAFTDAHAGVNITYSEYFEMACRLAESLKRYGLGLQHRIVVCSENSLQFFMPVVGALFIGVGVAPANDIYNERELLNSMTISQPTLVFCSRKGLQKILNVQKKLPVIQKIIILDTKEDYMGFQSMYSFVDSQLPVGFNEYDYVPDSFDRDQATALIMNSSGSTGLPKGVELNHTSVCVRFSHCRDPVYGNQIIPDTAILSVIPFHHGFGMFTTLGYLICGFRVVLMYRFEEELFLRSLQDYKIQSALLVPTLFSFFAKSTLIDKYDLSNLHEIASGGAPLAKWVGEAVAKRFNLRGIRQGYGLTETTSAVIITPEGDDKPGAVGKVVPFFSAKVVDLDTGKTLGVNQRGELCLKGPMIMKGYVNNPEATNALIDKDGWLHSGDISYWDEDGHFFIVDRLKSLIKYKGYQVPPAELESILLQHPFIFDAGVAGIPDDEAGELPAAVVVLEEGKTMTEKEIMDYVAGQVTTAKRLRGGVVFVDEVPKGLTGKIDARKIREILVKVKKTKSKL | – | – | 8.0 pH | stronger light emission; also recorded: higher luminescence intensity
